Experimental findings from PMC9812531 (Nature structural & molecular biology, 2021) are described below.

Read-outs that look alike come from different tables or passages of the source.

Holding throughout (experiment): cryo-EM structure
Series [1] concerns the target T1, human SPTLC2 (human, UniProt O15270 1-562, pyridoxal 5'-phosphate (PLP) in aldimine linkage to Lys379).
T1 sequence (looked up): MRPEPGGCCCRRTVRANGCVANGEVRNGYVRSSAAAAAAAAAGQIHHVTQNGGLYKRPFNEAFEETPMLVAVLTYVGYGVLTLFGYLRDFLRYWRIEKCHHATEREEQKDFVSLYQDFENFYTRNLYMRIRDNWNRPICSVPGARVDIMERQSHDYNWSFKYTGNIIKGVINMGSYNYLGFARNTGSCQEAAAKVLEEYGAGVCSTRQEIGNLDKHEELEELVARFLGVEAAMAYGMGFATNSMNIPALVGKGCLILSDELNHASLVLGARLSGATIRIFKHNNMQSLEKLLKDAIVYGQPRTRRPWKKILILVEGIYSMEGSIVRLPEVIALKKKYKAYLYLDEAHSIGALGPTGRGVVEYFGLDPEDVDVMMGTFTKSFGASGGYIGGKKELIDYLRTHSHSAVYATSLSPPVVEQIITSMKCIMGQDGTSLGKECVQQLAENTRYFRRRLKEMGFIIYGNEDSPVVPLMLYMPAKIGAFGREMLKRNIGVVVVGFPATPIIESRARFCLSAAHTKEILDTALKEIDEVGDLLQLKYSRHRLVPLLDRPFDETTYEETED

Series [2] concerns the molecule itself.
Series [3] concerns the molecule itself. The source holds these as a separate data set.

One may read the stoichiometry N as the number of molecules, sites or subunits per partner or assembly.

B1: human ssSPTa (natural protein)
chain: MAGMALARAWKQMSWFYYQYLLVTALYMLEPWERTVFNSMLVSIVGMALYTGYVFMPQHIMAILHYFEIVQ
On to B1, for which, in series [1], the “stoichiometry N” value was 1.

B2: human SPTLC1 (natural protein)
chain: MATATEQWVLVEMVQALYEAPAYHLILEGILILWIIRLLFSKTYKLQERSDLTVKEKEELIEEWQPEPLVPPVPKDHPALNYNIVSGPPSHKTVVNGKECINFASFNFLGLLDNPRVKAAALASLKKYGVGTCGPRGFYGTFDVHLDLEDRLAKFMKTEEAIIYSYGFATIASAIPAYSKRGDIVFVDRAACFAIQKGLQASRSDIKLFKHNDMADLERLLKEQEIEDQKNPRKARVTRRFIVVEGLYMNTGTICPLPELVKLKYKYKARIFLEESLSFGVLGEHGRGVTEHYGINIDDIDLISANMENALASIGGFCCGRSFVIDHQRLSGQGYCFSASLPPLLAAAAIEALNIMEENPGIFAVLKEKCGQIHKALQGISGLKVVGESLSPAFHLQLEESTGSREQDVRLLQEIVDQCMNRSIALTQARYLEKEEKCLPPPSIRVVVTVEQTEEELERAASTIKEVAQAVLL
With B2, the “stoichiometry N” value in series [1] was found to be 1. In addition, the binding result in series [2] is listed as “binds”.

B3: human SPT-ORMDL3 complex (SPTLC1-SPTLC2-ssSPTa-ORMDL3), one protomer (complex)
chain 1: B2 chain
chain 2: T1 sequence (looked up)
chain 3: B1 chain
chain 4: MNVGTAHSEVNPNTRVMNSRGIWLSYVLAIGLLHIVLLSIPFVSVPVVWTLTNLIHNMGMYIFLHTVKGTPFETPDQGKARLLTHWEQMDYGVQFTASRKFLTITPIVLYFLTSFYTKYDQIHFVLNTVSLMSVLIPKLPQLHGVRIFGINKY
modifications: pyridoxal 5'-phosphate (PLP) in aldimine linkage to Lys379
In the case of B3, the “stoichiometry N” value in series [2] was found to be 2.

B4: human SPT complex (SPTLC1-SPTLC2-ssSPTa), one protomer (complex)
chain 1: B2 chain
chain 2: T1 sequence (looked up)
chain 3: B1 chain
modifications: pyridoxal 5'-phosphate (PLP) in aldimine linkage to Lys379
As to B4, in series [3], the “stoichiometry N” value was 2.
